Assay [1] deals with salt stripped chicken erythrocyte mononucleosomes (chicken (endogenous in erythrocytes)). Put plainly: native gel or EMSA. On the technique in general: In EMSA bound probe runs differently from free probe, usually more slowly.
The target in assay [2] is HMGN1 (UniProt P05114). The assay can be described thus: co-IP.
Assay [3] concerns the target HMGN2 (UniProt P05204). Put plainly: co-IP.

As for “HMGN2 (from UniProt P05204 1-90) (natural protein)”, the H3K27ac level in HA complexes over LA MNs (dot blot) in assay [1] was found to be 1.5 times.

In the case of “salt-stripped oligonucleosomes from mouse embryonic fibroblasts (complex)”, in assay [2], the H3K27ac level in HMGN-bound ON over input ON (dot blot) was > 3 fold and the H3K27ac signal in HMGN1-bound over input nucleosomes (Western) is 2.7 fold. In assay [3], the H3K27ac level in HMGN-bound ON over input ON (dot blot) was > 3 fold.

B1: HMGN1 (natural protein)
chain: MPKRKVSSAEGAAKEEPKRRSARLSAKPPAKVEAKPKKAAAKDKSSDKKVQTKGKRGAKGKQAEVANQETKEDLPAENGETKTEESPASDEAGEKEAKSD
B1: in assay [1], the H3K27ac level in HA complexes over LA MNs (dot blot) was 1.5 times, the H3K27ac level in HA over LA fraction (Western) worked out at 2 fold, the percent of total MNs not shifted (LA fraction) at HMGN:MN ratio 2.0 is 12% and the percent of total MNs shifted (HA fraction) at HMGN1:MN ratio 0.2 stood at 9%.

Values taken from doi:10.1101/2021.05.03.442466.
